Results on 1 molecule are retold here after patent CN116745314A (VIR BIOTECHNOLOGY CO LTD, dated 2023).

The target of this experiment is purified SARS-CoV-2 RBD (limits of the construct not stated) (SARS-CoV-2, UniProt P0DTC2 331-550). As to the kind of experiment: told in the legend of the ELISA figure (Fig. 38).

B1: S309-14 (S309 with VH W105F mutation) (antibody, V domains shown)
VH: not shown
VL: EIVLTQSPGTLSLSPGERATLSCRASQTVSSTSLAWYQQKPGQAPRLLIYGASSRATGIPDRFSGSGSGTDFTLTISRLEPEDFAVYYCQQHDTSLTFGGGTKVEIK
On to B1, for which the binding result is “binds”.
